Assay results: paper PMC4838387, “PolDIP2 interacts with human PrimPol and enhances its DNA polymerase activities”

T1: PrimPol24-354 (AEP catalytic domain) (human, UniProt Q96LW4 24-354)
T1 sequence: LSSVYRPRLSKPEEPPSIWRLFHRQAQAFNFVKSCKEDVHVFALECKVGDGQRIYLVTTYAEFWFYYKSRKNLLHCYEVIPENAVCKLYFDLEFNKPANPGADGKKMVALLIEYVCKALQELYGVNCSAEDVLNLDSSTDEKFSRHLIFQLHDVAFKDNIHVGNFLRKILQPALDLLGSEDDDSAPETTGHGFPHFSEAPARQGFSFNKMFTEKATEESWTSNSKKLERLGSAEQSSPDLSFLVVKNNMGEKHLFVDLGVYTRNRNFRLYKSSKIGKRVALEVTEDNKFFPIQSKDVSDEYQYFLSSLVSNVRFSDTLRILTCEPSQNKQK

T2: PolDIP2 (untagged) (UniProt Q9Y2S7 1-368)
T2 sequence: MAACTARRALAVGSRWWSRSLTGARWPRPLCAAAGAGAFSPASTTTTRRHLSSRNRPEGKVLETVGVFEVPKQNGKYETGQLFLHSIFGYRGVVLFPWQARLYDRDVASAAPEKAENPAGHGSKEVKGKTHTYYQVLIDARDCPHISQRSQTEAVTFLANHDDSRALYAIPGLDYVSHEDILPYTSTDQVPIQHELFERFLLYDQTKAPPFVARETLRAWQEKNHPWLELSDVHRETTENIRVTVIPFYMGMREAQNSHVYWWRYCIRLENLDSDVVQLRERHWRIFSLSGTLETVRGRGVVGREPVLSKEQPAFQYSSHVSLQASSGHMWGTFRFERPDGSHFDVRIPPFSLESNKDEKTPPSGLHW

T3: full-length human PrimPol (human) (UniProt Q96LW4)
T3 sequence: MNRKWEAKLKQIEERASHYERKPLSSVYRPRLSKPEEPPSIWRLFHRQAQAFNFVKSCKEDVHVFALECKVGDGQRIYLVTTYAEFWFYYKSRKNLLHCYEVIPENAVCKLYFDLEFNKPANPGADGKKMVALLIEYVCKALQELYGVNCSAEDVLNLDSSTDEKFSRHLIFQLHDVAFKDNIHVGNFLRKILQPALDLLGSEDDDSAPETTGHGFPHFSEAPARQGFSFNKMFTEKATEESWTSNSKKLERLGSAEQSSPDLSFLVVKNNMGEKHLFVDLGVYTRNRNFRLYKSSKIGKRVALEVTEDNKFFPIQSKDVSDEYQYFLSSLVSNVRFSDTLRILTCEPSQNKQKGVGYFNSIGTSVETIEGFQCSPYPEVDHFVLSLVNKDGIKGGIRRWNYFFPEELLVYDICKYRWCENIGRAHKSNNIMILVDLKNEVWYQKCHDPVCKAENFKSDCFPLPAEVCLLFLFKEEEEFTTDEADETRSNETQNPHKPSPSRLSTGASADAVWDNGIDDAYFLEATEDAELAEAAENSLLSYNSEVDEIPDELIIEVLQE

T4: PrimPol^1–354 (human) (UniProt Q96LW4)
T4 sequence: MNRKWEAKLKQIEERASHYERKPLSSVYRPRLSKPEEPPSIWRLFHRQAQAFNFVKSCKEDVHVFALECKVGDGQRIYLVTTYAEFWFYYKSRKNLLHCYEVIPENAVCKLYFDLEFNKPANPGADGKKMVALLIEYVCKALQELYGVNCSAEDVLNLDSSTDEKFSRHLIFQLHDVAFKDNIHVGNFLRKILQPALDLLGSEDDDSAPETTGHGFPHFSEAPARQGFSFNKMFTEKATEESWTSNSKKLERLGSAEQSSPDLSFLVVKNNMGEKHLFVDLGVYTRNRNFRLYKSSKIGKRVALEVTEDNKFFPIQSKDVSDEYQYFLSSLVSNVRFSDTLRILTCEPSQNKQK


Columns and labels:
[1] = target: T1, PrimPol24-354 (AEP catalytic domain); experiment: EMSA; PrimPol 0.05-1 uM, 10 mM Mg2+, no PolDIP2; EMSA: 10 mM Bis-Tris-propane-HCl pH 7.0, 10 mM MgCl2, 100 uM DTT, 20 nM DNA; 5% native PAGE, 0.5x TBE; binding temperature not stated; details: protein: recombinant; label: 5'-HEX on primer; 3'-biotin on template; 20 bp duplex; template 5' overhang 77 nt
PolDIP2 (untagged) = target: T2, PolDIP2 (untagged); experiment: EMSA; PolDIP2 alone (100 nM in Fig 2A), 10 mM Mg2+; EMSA: 10 mM Bis-Tris-propane-HCl pH 7.0, 10 mM MgCl2, 100 uM DTT, 20 nM DNA; 5% native PAGE, 0.5x TBE; binding temperature not stated; details: protein: recombinant; tags: none (GST cleaved with PreScission protease); label: 5'-HEX on primer; 3'-biotin on template; 20 bp duplex; template 5' overhang 77 nt
[2] = target: T3, full-length human PrimPol (human)
PrimPol^1–354 (human) = target: T4, PrimPol^1–354 (human)

Row | K half of the stimulation of primer extension by PrimPol (20 nM) on 20/50-mer DNA, GST-PolDIP2 0-120 nM [2] | K half of the stimulation of primer extension by PrimPol 1-354 (20 nM) on 20/50-mer DNA, GST-PolDIP2 0-120 nM (PrimPol^1–354 (human)) | Binder | binding result [1] | binding result (PolDIP2 (untagged))
1 |  |  | 20/97-mer primer/template (HP-20 / ND-97) (mixed) DNA 1: TGTCGTCTGTTCGGTCGTTC DNA 2: ACCGCGAACTTGAATTCTAGTTCAGTCTAAATGCTCTCAAGCACTGAGCAATTCACAACATATGGCTTTCGATTACCGAACGACCGAACAGACGACA | binds | no binding
2 | 41 nM | 33.9 nM | GST-PolDIP2 (natural protein) SSRNRPEGKVLETVGVFEVPKQNGKYETGQLFLHSIFGYRGVVLFPWQARLYDRDVASAAPEKAENPAGHGSKEVKGKTHTYYQVLIDARDCPHISQRSQTEAVTFLANHDDSRALYAIPGLDYVSHEDILPYTSTDQVPIQHELFERFLLYDQTKAPPFVARETLRAWQEKNHPWLELSDVHRETTENIRVTVIPFYMGMREAQNSHVYWWRYCIRLENLDSDVVQLRERHWRIFSLSGTLETVRGRGVVGREPVLSKEQPAFQYSSHVSLQASSGHMWGTFRFERPDGSHFDVRIPPFSLESNKDEKTPPSGLHW |  | 
